Experimental data: PMC10048814
Numbering of substitutions follows the chain as printed.

Assays:
Test in all cases: fluorescence polarization
Details in all cases: 50 mM HEPES-KOH pH 7.5, 10 mM potassium acetate, 2 mM beta-mercaptoethanol, 0.1 mg/mL BSA, 5 mM MgCl2, 2 nM DNA, temperature not stated
[1] = biological target: T1, pol eta core T329I T329I (Homo sapiens) (UniProt Q9Y253)
T1 sequence: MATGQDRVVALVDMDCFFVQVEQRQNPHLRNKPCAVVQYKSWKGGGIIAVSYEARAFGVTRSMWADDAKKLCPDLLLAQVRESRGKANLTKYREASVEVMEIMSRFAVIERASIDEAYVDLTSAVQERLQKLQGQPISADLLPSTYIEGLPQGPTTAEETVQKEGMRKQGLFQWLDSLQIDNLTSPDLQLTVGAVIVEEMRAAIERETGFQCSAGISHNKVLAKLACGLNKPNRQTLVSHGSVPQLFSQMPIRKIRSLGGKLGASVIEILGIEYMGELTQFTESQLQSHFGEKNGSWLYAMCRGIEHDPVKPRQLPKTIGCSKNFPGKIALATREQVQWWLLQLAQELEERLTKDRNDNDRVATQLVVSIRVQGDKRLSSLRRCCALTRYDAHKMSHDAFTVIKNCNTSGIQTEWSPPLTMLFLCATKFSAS

[2] = biological target: T2, pol eta core G209V G209V (Homo sapiens) (UniProt Q9Y253)
T2 sequence: T1 sequence with G209V, I329T

[3] = biological target: T3, pol eta core S296F S296F (Homo sapiens) (UniProt Q9Y253)
T3 sequence: T1 sequence with S296F, I329T

[4] = biological target: T4, pol eta core R167Q R167Q (Homo sapiens) (UniProt Q9Y253)
T4 sequence: T1 sequence with R167Q, I329T

[5] = biological target: T5, pol eta core I147N I147N (Homo sapiens) (UniProt Q9Y253)
T5 sequence: T1 sequence with I147N, I329T

[6] = biological target: T6, pol eta core R334G R334G (Homo sapiens) (UniProt Q9Y253)
T6 sequence: T1 sequence with I329T, R334G

[7] = biological target: T7, pol eta core I272T I272T (Homo sapiens) (UniProt Q9Y253)
T7 sequence: T1 sequence with I272T, I329T

[8] = biological target: T8, DNA polymerase eta core, wild-type (Homo sapiens) (UniProt Q9Y253)
T8 sequence: T1 sequence with I329T

[9] = biological target: T9, pol eta core C34W C34W (Homo sapiens) (UniProt Q9Y253)
T9 sequence: T1 sequence with C34W, I329T

[10] = cis-syn cyclobutane thymine dimer at T7-T8 of the 25-mer template

Sequence	Kd [1, 10]	Kd [2, 10]	Kd [3, 10]	Kd [4, 10]	Kd [5, 10]	Kd [6, 10]	Kd [7, 10]	Kd [8, 10]	Kd [9, 10]	Kd [1]	Kd [2]	Kd [3]	Kd [4]	Kd [5]	Kd [6]	Kd [7]	Kd [8]	Kd [9]
CACCATCCACTAC / ATGTAGTTGTAGTGGATGGTGGTAC [13-FAM-mer/25-CTD-mer]	5.9 nM	11 nM	14 nM	18 nM	7 nM	12 nM	11 nM	11 nM	5.9 nM									
CACCATCCACTAC / ATGTAGTTGTAGTGGATGGTGGTAC [13-FAM-mer/25-TT-mer]										5 nM	8.4 nM	10 nM	9.5 nM	6.7 nM	11 nM	8.5 nM	10 nM	6.1 nM
